The values below come from PMC8466238, “Development of High Affinity Calcitonin Analog Fragments Targeting Extracellular Domains of Calcitonin Family Receptors” (Biomolecules, 2021).

One experiment addresses T1, CTR ECD (Homo sapiens, UniProt P30988).
T1 construct: pHLsec/hCTR.34–141-H6 (H-pSL003); H6 (His6) (C); made in house; host or cells: HEK293T
T1 sequence (P30988 34-141): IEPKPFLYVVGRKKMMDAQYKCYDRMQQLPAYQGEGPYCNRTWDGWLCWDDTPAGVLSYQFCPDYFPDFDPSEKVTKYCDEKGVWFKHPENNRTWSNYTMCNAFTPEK
The experiment is described as follows: FP competition peptide binding assay with purified CTR ECD, FITC-sCT(22–32) probe. The following applies: for Ki: CTR ECD 500 nM, FITC-sCT(22–32) 10 nM, mean ± SD of N = 3 independent experiments. An excerpt: The overall procedures of FP peptide binding assay with receptor ECDs and FITC-labeled peptide probes were previously described. […] A SpectraiD5 (Molecular Devices, San Jose, CA, USA) was used to measure fluorescence polarization/anisotropy. Background (reaction buffer only) was subtracted for anisotropy calculation. For the SpectraiD5, G factor (0.38 for FITC-sCT(22–32) and 0.41 for FITC-AC413(6–25) and FITC-AC413(6–25) Y25P) was used to correct the instrumental bias for anisotropy calculation. The polarization (mP) of the FITC-peptide probes only (No receptor ECD) was set close to 50 mP. For the saturation binding assay, the anisotropy values were re-calculated when total fluorescence intensity was changed by more than 10% as previously described. […] Anisotropy values were used to produce non-linear regression curves with PRISM 5.0 (GraphPad software, San Diego, CA, USA) as previously described. KI indicates affinity values obtained from competition binding assay and it was calculated from the non-linear regression curves of anisotropy by using equations previously described. Concentrations of the FITC-labeled peptide and the total receptor protein and the affinity of the FITC-labeled peptide for the receptor protein were incorporated into the equations for the KI calculation of the competitive peptide ligand. Two technical replicates were used for each receptor concentration in the peptide-binding curve. SEM of the anisotropy values of the two replicates at each receptor concentration were presented as error bars in the representative peptide-binding curves. When the error bars were shorter than the height of the symbol, they were omitted in the representative curves. At least three independent peptide binding experiments were performed to obtain three independent peptide-binding curves. Mean and standard deviation of peptide ligand affinity were calculated from them.

Experiment [1] addresses T2, RAMP2-CTR ECD fusion protein (hRAMP2.55–140-(GSA)3-hCTR.34–141-H6) (human, UniProt O60895 55-140; P30988 34-141).
T2 construct: human receptor activity-modifying protein 2 (RAMP2), extracellular domain, residues 55-140; linker, printed as (GSA)3; human calcitonin receptor (CTR), extracellular domain, residues 34-141; Secreted from a pHLsec-based vector; also called AMY receptor 2 ECD; RAMP2 ECD-CTR ECD fusion; source: HEK293T, transiently transfected, secreted to cell culture media, purified (IMAC, SEC)
T2 chain: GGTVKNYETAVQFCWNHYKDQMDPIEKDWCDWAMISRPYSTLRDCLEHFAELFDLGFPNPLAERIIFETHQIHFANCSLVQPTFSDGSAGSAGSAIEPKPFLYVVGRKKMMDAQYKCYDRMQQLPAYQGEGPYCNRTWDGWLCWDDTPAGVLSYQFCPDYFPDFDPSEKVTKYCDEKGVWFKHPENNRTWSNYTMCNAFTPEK
In words: fluorescence polarisation; competition binding, full curves: FITC-AC413(6–25) Y25P probe 10 nM, RAMP1-CTR ECD 77 nM, RAMP2-CTR ECD 67 nM or RAMP3-CTR ECD 252 nM, competitive peptide at multiple concentrations, all in solution; KI from non-linear regression of anisotropy. The note with it: both partners purified.

The target in experiment [2] is T3, RAMP1-CTR ECD fusion protein (hRAMP1.24–111-(GSA)3-hCTR.34–141-H6) (human, UniProt O60894 24-111; P30988 34-141).
T3 construct: human receptor activity-modifying protein 1 (RAMP1), extracellular domain, residues 24-111; linker, printed as (GSA)3; human calcitonin receptor (CTR), extracellular domain, residues 34-141; Secreted from a pHLsec-based vector; also called AMY receptor 1 ECD; RAMP1 ECD-CTR ECD fusion; source: HEK293T, transiently transfected, secreted to cell culture media, purified (IMAC, SEC)
T3 chain: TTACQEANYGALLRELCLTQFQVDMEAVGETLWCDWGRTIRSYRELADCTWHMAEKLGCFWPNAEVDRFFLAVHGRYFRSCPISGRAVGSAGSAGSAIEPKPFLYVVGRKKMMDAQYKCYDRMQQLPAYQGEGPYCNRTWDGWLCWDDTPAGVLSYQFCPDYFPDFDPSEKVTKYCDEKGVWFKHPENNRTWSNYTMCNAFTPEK
The description is as above. The following applies: both partners purified.

Experiment [3] deals with T4, RAMP3-CTR ECD fusion protein (hRAMP3.25–112-(GSA)3-hCTR.34–141-H6) (human, UniProt O60896 25-112; P30988 34-141).
T4 construct: human receptor activity-modifying protein 3 (RAMP3), extracellular domain, residues 25-112; linker, printed as (GSA)3; human calcitonin receptor (CTR), extracellular domain, residues 34-141; Secreted from a pHLsec-based vector; also called AMY receptor 3 ECD; RAMP3 ECD-CTR ECD fusion protein; source: HEK293S GnTI-, transiently transfected (PEI), secreted to cell culture media, purified (IMAC, SEC)
T4 chain: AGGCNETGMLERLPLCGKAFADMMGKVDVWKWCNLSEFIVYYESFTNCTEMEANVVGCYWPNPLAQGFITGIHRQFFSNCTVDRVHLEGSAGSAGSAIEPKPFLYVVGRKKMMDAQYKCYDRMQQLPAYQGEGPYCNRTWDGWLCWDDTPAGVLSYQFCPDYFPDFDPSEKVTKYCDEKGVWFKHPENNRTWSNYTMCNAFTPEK
Described as above. The note with it: both partners purified.

Experiment [4] deals with T5, calcitonin receptor extracellular domain (hCTR.34–141-H6) (human, UniProt P30988 34-141).
T5 construct: human calcitonin receptor (CTR), extracellular domain, residues 34-141; Secreted from a pHLsec-based vector; also called CTR ECD; purified CTR ECD; source: HEK293T, transiently transfected, secreted to cell culture media, purified (IMAC, SEC)
T5 sequence (looked up): T1 sequence (P30988 34-141)
In words: fluorescence polarisation; competition binding, full curves: FITC-sCT(22–32) probe 10 nM, CTR ECD 500 nM, competitive peptide at multiple concentrations, all in solution; KI from non-linear regression of anisotropy. The note with it: both partners purified. (Fluorescence polarisation rises when a labelled molecule tumbles more slowly, as on binding a larger partner.)

Setting [5] is: Figure 2b experiment set, read-out: pKI Mean ± SD (converted).
The mark [6] stands for this setting: Figure 1d experiment set, pKI = –log10[KI] (M).

Values joined by “and” are separate entries in the source; they are usually repeats but may differ in a detail not shown here. Equal entries are not always repeated. Where two headings read alike, the source gives them in different places. Where a SMILES comes first, the peptide text is derived from it. Where no end group is shown, it is not given here. [ ]: non-standard residue; d: D form. Hyp = O=C(O)[C@@H]1C[C@@H](O)CN1

Regarding `C[C@@H](O)[C@H](NC(=O)[C@H](CC(=O)O)NC(=O)[C@@H](NC(=O)[C@H](CCCNC(=N)N)NC(=O)[C@@H]1CCCN1C(=O)[C@@H](N)Cc1ccc(O)cc1)[C@@H](C)O)C(=O)NCC(=O)N1C[C@H](O)C[C@H]1C(=O)NCC(=O)N[C@H](C(=O)N1CCC[C@H]1C(N)=O)[C@@H](C)O` [sCT(22–32) N26D/S29HYP] (H-YPRTDTG[Hyp]GTP-NH2; N-terminus assumed), the Ki at CTR ECD (Figure 3b experiment set, read-out: pKI Mean ± SD (converted)) was 3.16e-06 M. Further, the “affinity decrease for the CTR ECD compared to sCT(22–32) with N26D/S29P mutations” value on CTR ECD (Figure 3b, ratio of KI values, versus sCT(22–32) N26D/S29P) is given as 13 fold.
YPRTDTGSGTP-NH2 [sCT(22–32) N26D]: the figures for the Ki on CTR ECD (setting [5]) and at CTR ECD (setting [6]) were 9.77e-07 M and 1e-06 M, respectively.
In the case of YPRTDTGVGTP-NH2 [sCT(22–32) N26D/S29V], the Ki at CTR ECD (setting [5]) was 5.89e-07 M.
YPRTNTGPGTP-NH2 [sCT(22–32) S29P] gave a Ki on CTR ECD (setting [6]) of 3.47e-07 M.

B1: sCT(22–32) P32HYP (peptide)
peptide: YPRTNTGSGT[Hyp]-NH2
modifications: N-terminus assumed
SMILES: C[C@@H](O)[C@H](NC(=O)[C@H](CC(N)=O)NC(=O)[C@@H](NC(=O)[C@H](CCCNC(=N)N)NC(=O)[C@@H]1CCCN1C(=O)[C@@H](N)Cc1ccc(O)cc1)[C@@H](C)O)C(=O)NCC(=O)N[C@@H](CO)C(=O)NCC(=O)N[C@H](C(=O)N1C[C@H](O)C[C@H]1C(N)=O)[C@@H](C)O
notes: salmon calcitonin (sCT), residues 22-32, with P32HYP; numbers count on: the mature 32-residue hormone; Residue 32 is hydroxyproline, not plain proline; source: synthetic peptide (Genscript, HPLC-purified)
B1: the Ki in experiment [1] came out at 1.43 µM; in experiment [2] it was 0.887 µM; in experiment [3], 0.995 µM; in experiment [4] it was 0.887 µM. Also, the pKI was 5.85 -log10(M) in experiment [1], 6.05 -log10(M) in experiment [2], 6 -log10(M) in experiment [3] and 6.05 -log10(M) in experiment [4].

B2: sCT(22–32) (peptide)
peptide: YPRTNTGSGTP-NH2
notes: salmon calcitonin (sCT), residues 22-32; numbers count on: the mature 32-residue hormone; also called wild-type sCT(22–32); salmon calcitonin fragment 22–32; source: synthetic peptide (Genscript, HPLC-purified)
Consider B2, for which the Ki in experiment [1] was 2.8 µM; in experiment [2], 2.55 µM; in experiment [3] it was 2.56 µM; in experiment [4], 2.03 µM and 1.76 µM. For the same molecule, the pKI in experiment [1] was 5.55 -log10(M); in experiment [2] it was 5.59 -log10(M); in experiment [3] it was 5.59 -log10(M); in experiment [4], 5.75 -log10(M) and 5.69 -log10(M).

B3: sCT(22–32) N26D/S29P/P32HYP (peptide)
peptide: YPRTDTGPGT[Hyp]-NH2
notes: salmon calcitonin (sCT), residues 22-32, with N26D, S29P and P32HYP; numbers count on: the mature 32-residue hormone; Residue 32 is hydroxyproline, not plain proline; also called the mutated sCT(22–32); sCT(22–32) with the combined mutations (N26D, S29P, and P32HYP); source: synthetic peptide (Genscript, HPLC-purified)
As for B3, the Ki turned out to be 0.34 µM in experiment [1], 0.124 µM in experiment [2], 0.118 µM in experiment [3] and 0.095 µM in experiment [4]. The pKI is 6.47 -log10(M) in experiment [1], 6.91 -log10(M) in experiment [2], 6.93 -log10(M) in experiment [3] and 7.02 -log10(M) in experiment [4].

B4: sCT(22–32) S29P (peptide)
peptide: YPRTNTGPGTP-NH2
notes: salmon calcitonin (sCT), residues 22-32, with S29P; numbers count on: the mature 32-residue hormone; source: synthetic peptide (Genscript, HPLC-purified)
On to B4, for which, in experiment [4], the Ki stood at 0.343 µM and the pKI is 6.46 -log10(M).

B5: sCT(22–32) N26D (peptide)
peptide: YPRTDTGSGTP-NH2
notes: salmon calcitonin (sCT), residues 22-32, with N26D; numbers count on: the mature 32-residue hormone; also called sCT(22–32) N26D backbone peptide; source: synthetic peptide (Genscript, HPLC-purified)
Take B5: in experiment [4], the Ki was 0.98 µM and 1 µM; the pKI was 6.01 -log10(M) and 6 -log10(M).

B6: sCT(22–32) N26D/S29A (peptide)
peptide: YPRTDTGAGTP-NH2
notes: salmon calcitonin (sCT), residues 22-32, with N26D and S29A; numbers count on: the mature 32-residue hormone; source: synthetic peptide (Genscript, HPLC-purified)
On to B6, for which, in experiment [4], the Ki is 0.437 µM and the pKI was 6.36 -log10(M).

B7: sCT(22–32) N26D/S29P (peptide)
peptide: YPRTDTGPGTP-NH2
notes: salmon calcitonin (sCT), residues 22-32, with N26D and S29P; numbers count on: the mature 32-residue hormone; source: synthetic peptide (Genscript, HPLC-purified)
In the case of B7, the Ki is 0.47 µM in experiment [1]; 0.381 µM in experiment [2]; 0.333 µM in experiment [3]; 0.239 µM and 0.314 µM in experiment [4]. For the same molecule, the pKI in experiment [1] was 6.33 -log10(M); in experiment [2] it was 6.42 -log10(M); in experiment [3], 6.48 -log10(M); in experiment [4] it was 6.62 -log10(M) and 6.5 -log10(M).

B8: sCT(22–32) N26D/S29V (peptide)
peptide: YPRTDTGVGTP-NH2
notes: salmon calcitonin (sCT), residues 22-32, with N26D and S29V; numbers count on: the mature 32-residue hormone; source: synthetic peptide (Genscript, HPLC-purified)
B8: in experiment [4], the Ki stood at 0.591 µM and the pKI is 6.23 -log10(M).

B9: sCT(22–32) N26D/S29HYP (peptide)
peptide: YPRTDTG[Hyp]GTP-NH2
modifications: N-terminus assumed
SMILES: C[C@@H](O)[C@H](NC(=O)[C@H](CC(=O)O)NC(=O)[C@@H](NC(=O)[C@H](CCCNC(=N)N)NC(=O)[C@@H]1CCCN1C(=O)[C@@H](N)Cc1ccc(O)cc1)[C@@H](C)O)C(=O)NCC(=O)N1C[C@H](O)C[C@H]1C(=O)NCC(=O)N[C@H](C(=O)N1CCC[C@H]1C(N)=O)[C@@H](C)O
notes: salmon calcitonin (sCT), residues 22-32, with N26D and S29HYP; printed as YPRTDTG[HYP]GTP-NH2, the hydroxyproline at 29 is written here as P; numbers count on: the mature 32-residue hormone; Residue 29 is hydroxyproline, not plain proline; source: synthetic peptide (Genscript, HPLC-purified)
Consider B9, for which, in experiment [4], the Ki worked out at 3.18 µM and the pKI was 5.5 -log10(M).
